Measured values from paper PMC5079111 (Cell, 2016).

Target: His-NPM1 (human, UniProt P06748 1-294)
Assay: pull-down

Chain of His-NPM1 (P06748 whole entry): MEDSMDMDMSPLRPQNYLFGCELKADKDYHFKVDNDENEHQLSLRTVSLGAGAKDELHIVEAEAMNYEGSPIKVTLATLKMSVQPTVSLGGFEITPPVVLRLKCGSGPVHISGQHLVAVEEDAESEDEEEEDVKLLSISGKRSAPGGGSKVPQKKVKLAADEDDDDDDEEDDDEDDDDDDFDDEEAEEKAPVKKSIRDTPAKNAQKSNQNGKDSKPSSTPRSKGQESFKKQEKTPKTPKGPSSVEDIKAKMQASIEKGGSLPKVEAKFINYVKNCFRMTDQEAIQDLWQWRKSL

Row | Binder | binding result
1 | GRGRGRGRGRGRGRGRGRGRGRGRGRGRGRGRGRGRGRGR [GR20-FLAG peptide] | binds
2 | PRPRPRPRPRPRPRPRPRPRPRPRPRPRPRPRPRPRPRPR [PR20-FLAG peptide] | binds
